These are literature values, as cited in publication PMC10357296.

In this data set the target is IL-18 (Homo sapiens) (UniProt Q14116).
Chain of IL-18 (Homo sapiens) (Q14116 37-193): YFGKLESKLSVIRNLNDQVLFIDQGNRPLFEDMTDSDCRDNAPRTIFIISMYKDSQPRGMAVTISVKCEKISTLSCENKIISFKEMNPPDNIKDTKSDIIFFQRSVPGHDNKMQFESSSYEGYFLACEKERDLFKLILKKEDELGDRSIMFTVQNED

Chain of IL-18BP (O95998 31-194): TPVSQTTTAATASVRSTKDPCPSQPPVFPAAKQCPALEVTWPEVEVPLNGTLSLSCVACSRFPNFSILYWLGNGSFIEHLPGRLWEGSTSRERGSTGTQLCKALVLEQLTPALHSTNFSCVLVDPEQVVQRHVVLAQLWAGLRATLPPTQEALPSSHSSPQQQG

The term Kd denotes the equilibrium constant for the complex coming apart. IL-18BP (from UniProt O95998): the dissociation constant Kd was less than 1 nM.
